Reference: article PMC12795676, “Integrin α5β1 mediates the inhibitory effects of vasoinhibin on angiogenesis and vascular permeability [image fx1.gif]” (The Journal of Biological Chemistry, 2025)
No end group written: not given here.

B1: biotinylated peptide comprising residues 45 to 51 of vasoinhibin (B-Vi45-51) (peptide, UniProt P01236 73-79, looked up)
peptide: THGRGFI
modifications: also: biotin, position not given here
notes: vasoinhibin (fragment of prolactin), residues 45 to 51, holds the HGR motif (H46, R48 printed); also called biotinylated Vi45-51; source: synthetic peptide, bought: GenScript
B2: vasoinhibin (Vi) (domain or fragment, UniProt P01236 29-151, looked up)
chain: LPICPGGAARCQVTLRDLFDRAVVLSHYIHNLSSEMFSEFDKRYTHGRGFITKAINSCHTSSLATPEDKEQAQQMNQKDFLSLIVSILRSWNEPLYHLVTEVRGMQEAPEAILSKAVEIEEQT
notes: vasoinhibin, a fragment of the hormone prolactin; also called 16K prolactin

Tests used:
Conditions in all cases: both partners purified
[1] = molecular target: T1, recombinant human integrin α5β1 (human, UniProt P08648 42-995; P05556 21-728); experiment: SPR; B-Vi45-51 (100 nM) immobilised on a streptavidin SA chip (Biacore 1K); integrin α5β1 injected at 30 μl/min, 60 s association/dissociation; HBS-P, 150 mM NaCl, 1 mM MnCl2, pH 7.4; 1:1 model (legend: steady-state)
T1 construct: integrin α5 subunit, human, recombinant; integrin β1 subunit, human, recombinant; No catalogue number is printed; also called α5β1 integrin; source: bought: Bio-Techne
T1 sequence (P08648 42-995, chain 1 of 2): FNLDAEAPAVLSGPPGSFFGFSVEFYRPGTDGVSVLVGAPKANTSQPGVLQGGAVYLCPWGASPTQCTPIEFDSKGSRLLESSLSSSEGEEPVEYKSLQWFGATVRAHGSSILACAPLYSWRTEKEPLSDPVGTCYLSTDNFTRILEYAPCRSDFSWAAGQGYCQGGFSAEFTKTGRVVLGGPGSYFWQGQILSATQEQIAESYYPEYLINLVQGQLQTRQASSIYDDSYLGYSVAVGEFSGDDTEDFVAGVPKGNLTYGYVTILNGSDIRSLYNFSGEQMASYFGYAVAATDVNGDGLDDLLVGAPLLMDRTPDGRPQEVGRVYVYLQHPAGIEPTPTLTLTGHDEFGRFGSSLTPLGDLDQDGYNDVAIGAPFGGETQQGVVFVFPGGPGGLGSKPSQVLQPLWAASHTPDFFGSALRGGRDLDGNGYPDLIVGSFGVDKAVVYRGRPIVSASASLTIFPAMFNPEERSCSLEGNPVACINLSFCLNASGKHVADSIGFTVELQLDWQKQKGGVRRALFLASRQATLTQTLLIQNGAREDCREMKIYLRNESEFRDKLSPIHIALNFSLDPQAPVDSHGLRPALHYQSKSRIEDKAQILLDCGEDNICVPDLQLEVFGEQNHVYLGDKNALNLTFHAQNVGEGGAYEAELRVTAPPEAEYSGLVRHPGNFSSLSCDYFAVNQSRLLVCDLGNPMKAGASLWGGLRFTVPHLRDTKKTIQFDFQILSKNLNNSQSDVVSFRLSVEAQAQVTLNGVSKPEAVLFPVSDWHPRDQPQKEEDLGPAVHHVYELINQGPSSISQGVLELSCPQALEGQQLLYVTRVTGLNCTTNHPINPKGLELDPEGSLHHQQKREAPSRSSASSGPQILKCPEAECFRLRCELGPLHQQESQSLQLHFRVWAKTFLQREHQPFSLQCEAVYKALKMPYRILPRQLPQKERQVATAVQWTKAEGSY
T1 sequence (P05556 21-728, chain 2 of 2): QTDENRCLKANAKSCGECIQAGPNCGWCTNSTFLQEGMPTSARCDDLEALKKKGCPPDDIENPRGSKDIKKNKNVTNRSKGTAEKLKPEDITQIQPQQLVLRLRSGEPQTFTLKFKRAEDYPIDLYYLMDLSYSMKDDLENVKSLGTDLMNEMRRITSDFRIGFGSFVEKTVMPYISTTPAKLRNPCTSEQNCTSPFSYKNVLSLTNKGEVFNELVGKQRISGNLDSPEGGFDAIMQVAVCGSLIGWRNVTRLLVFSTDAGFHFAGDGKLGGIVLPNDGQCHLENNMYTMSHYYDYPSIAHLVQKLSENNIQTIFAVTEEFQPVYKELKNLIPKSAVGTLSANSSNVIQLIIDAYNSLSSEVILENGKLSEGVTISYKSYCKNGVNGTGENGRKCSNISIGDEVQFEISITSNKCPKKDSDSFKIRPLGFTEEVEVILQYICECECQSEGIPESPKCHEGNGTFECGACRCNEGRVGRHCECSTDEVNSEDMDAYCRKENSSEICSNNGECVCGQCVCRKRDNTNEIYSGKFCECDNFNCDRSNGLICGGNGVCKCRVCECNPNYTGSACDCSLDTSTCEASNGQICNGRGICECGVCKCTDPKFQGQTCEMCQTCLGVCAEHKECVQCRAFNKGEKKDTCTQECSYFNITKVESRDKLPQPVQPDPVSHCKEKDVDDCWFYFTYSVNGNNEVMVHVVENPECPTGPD

[2] = molecular target: plasminogen activator inhibitor-1 (PAI-1), immobilised on ELISA plates (UniProt P05121 24-402); experiment: ELISA; plates coated with 2 μg/mL integrin α5β1, PAI-1 or PAI-1-uPA complex; incubated with B-Vi45-51 or Vi (dose-dependent) or 100 nM Vi mutants; horseradish peroxidase antibodies and TMB
Chain of plasminogen activator inhibitor-1 (PAI-1), immobilised on ELISA plates (P05121 24-402): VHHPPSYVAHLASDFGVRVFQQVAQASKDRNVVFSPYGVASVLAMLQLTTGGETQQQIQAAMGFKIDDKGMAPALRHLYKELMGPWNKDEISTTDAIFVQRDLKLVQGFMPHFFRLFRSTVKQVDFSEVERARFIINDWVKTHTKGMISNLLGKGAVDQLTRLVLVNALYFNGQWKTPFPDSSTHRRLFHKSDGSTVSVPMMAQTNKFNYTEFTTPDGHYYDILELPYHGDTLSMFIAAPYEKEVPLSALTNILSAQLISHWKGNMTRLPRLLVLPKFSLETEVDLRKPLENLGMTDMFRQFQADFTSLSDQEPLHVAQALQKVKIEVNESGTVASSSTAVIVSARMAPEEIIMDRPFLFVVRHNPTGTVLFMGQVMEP

[3] = molecular target: T1, recombinant human integrin α5β1; experiment: as above
[4] = molecular target: T2, PAI-1-uPA complex, immobilised on ELISA plates (UniProt P05121 24-402; P00749 21-431); experiment: as above
T2 construct: the methods print '(37 °C, 10 min)' after the complex
T2 sequence (P05121 24-402, chain 1 of 2, other chains not shown): as the sequence (P05121 24-402) above

Binder	Kd [1] [nM]	Kd [2] [nM]	Kd [3] [nM]	Kd [4] [nM]
B1	2740	–	–	–
B2	–	528	383	406
